The Kd is the equilibrium constant for the complex coming apart. One may read the koff as the first-order rate constant of dissociation. As usually defined, the kon is a measure of how fast the partners come together.

We go through one molecule from US20230002481A1 (Chugai, published 2023).

In experiment [1] the target is T1, recombinant human C1r2s2 tetramer (human, UniProt P09871 16-688; P00736 18-705).
T1 construct: Heterotetramer of two C1r and two C1s chains, co-expressed in FreeStyle293-F cells; also called human C1r2s2s
T1 chain 1: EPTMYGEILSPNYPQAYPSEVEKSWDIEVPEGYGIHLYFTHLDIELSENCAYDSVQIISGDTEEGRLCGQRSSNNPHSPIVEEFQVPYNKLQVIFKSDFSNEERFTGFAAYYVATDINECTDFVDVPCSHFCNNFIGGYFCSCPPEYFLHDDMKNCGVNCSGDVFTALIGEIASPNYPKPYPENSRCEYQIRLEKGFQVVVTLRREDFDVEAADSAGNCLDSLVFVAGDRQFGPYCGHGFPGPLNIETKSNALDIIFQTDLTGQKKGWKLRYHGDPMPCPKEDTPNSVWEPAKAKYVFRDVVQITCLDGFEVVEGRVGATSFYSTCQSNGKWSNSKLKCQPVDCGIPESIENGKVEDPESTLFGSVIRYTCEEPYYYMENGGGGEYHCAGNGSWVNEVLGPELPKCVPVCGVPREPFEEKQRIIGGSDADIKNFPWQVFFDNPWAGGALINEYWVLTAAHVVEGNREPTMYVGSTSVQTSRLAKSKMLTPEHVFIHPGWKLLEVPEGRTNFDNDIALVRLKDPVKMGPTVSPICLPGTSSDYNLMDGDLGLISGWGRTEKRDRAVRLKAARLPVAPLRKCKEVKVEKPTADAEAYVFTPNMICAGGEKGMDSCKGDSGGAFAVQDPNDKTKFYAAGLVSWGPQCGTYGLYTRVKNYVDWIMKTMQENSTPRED
T1 chain 2: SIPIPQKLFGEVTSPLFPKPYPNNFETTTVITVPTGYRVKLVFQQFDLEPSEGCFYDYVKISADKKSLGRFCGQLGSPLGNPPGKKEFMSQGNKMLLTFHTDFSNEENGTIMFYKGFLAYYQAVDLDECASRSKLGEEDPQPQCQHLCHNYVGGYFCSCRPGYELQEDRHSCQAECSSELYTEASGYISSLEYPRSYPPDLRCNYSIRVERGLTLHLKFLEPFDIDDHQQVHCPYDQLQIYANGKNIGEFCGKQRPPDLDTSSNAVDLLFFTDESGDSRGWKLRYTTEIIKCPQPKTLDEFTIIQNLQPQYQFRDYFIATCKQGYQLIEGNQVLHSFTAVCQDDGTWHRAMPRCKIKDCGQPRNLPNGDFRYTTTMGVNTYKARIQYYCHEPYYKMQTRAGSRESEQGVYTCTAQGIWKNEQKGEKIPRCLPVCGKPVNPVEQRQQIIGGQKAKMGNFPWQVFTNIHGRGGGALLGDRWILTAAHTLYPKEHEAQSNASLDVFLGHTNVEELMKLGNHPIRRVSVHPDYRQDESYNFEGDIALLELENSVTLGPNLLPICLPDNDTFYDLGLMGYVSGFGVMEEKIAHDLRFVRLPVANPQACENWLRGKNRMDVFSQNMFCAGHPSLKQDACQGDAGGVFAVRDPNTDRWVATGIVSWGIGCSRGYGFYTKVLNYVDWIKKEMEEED
Kind of experiment: SPR (Biacore), antibody captured on ProA/G, antigen as analyte, 37 C, pH5.8, 1.2 mM CaCl2; pH 5.8. How it is done: (§1) The kinetic parameters of anti-C1s antibodies against recombinant human C1s (as described in PCT/JP2018/042054), human C1r2s2, and cyno C1r2s2 His/Flag (also referred as cyno C1r2s2 in the Table and Figures) were assessed at pH7.4 and pH5.8, at 37 degrees C. using BIACORE (registered trademark) T200 instrument (GE Healthcare) or BIACORE 4000 (GE Healthcare). ProAG (Pierce) was immobilized onto a CM4 sensorchip using amine coupling kit (GE Healthcare) according to the recommended settings by GE Healthcare. Antibodies and analytes were diluted into the respective running buffers, ACES pH7.4 and pH5.8 (20 mM ACES, 150 mM NaCl, 1.2 mM CaCl₂, 1 mg/ml BSA, 1 mg/ml CMD, 0.05% Tween 20, 0.005 w/v % NaN₃). Each antibody was captured onto the sensor surface by ProA/G. Antibody capture levels were typically 100-200 resonance units (RU). Then, recombinant C1s was injected at concentrations of 25 and 50 nM followed by dissociation at pH7.4 and pH5.8. The surface was regenerated using 10 mM Glycine-HCl, pH1.5. Kinetic parameters at neutral pH conditions and acidic conditions were determined by fitting the sensorgrams with 1:1 binding model using BIACORE (registered trademark) T200 Evaluation software, version 2.0 (GE Healthcare) or BIACORE 4000 Evaluation software. The dissociation rate at pH5.8 (after dissociation at pH7.4, indicated as pH5.8* in TABLE 2) was determined by processing and fitting data using Scrubber 2.0 (BioLogic Software) curve fitting software. The association rate (ka), dissociation rate (kd), binding affinity (KD) at pH7.4 and pH5.8 condition, and dissociation rate (kd) at pH5.8* condition of the antibodies are listed in TABLE 2. Some kinetic parameters of COS0098pHv1 in acidic condition were not correctly calculated because of its weak binding response.
(§2) Also, to observe the cross-reactivity of anti-C1s antibodies against human C1r2s2 and cyno C1r2s2 (cyno C1r2s2 His/Flag), BIACORE (registered trademark) kinetics analysis was performed.

Experiment [2] deals with T1, recombinant human C1r2s2 tetramer. Kind of experiment: SPR (Biacore), antibody captured on ProA/G, antigen as analyte, 37 C, pH7.4, 1.2 mM CaCl2; pH 7.4. How it is done: as §1, §2
(In general: Surface plasmon resonance follows binding to a sensor surface in real time, without labels.)

B1: COS0098bb (antibody, V domains shown)
VH: QSVEESGGRLVTPGTPLTLTCTVSGFSLTKYTVSWVRQAPGKGLEWIGIINTGGSAYYATWAKGRFTFSKTSTTVDLQITSPTTEDTATYFCARGNGDTDYTNLWGPGTLVTVSS
VL: QVLTQTPSSVSEPVGGTVTINCQASENIYSALAWYQQKPGQPPKLLIYGASNLESGVPSRFKGSGSGTQFTLTISDLECADAATYYCQQYYFTSSTFGGGTKVEIK
notes: Anti-C1s rabbit antibody, parent of COS0098pHv1; the antibody was captured by ProA/G; also called anti-C1s antibody COS0098bb
For B1, in experiment [1], the Kd was 1.2 nM, the koff was 0.00103 s⁻¹ and the kon is 858000 M⁻¹ s⁻¹. Also, in experiment [2], the Kd was 0.213 nM, the koff came to 0.0002 s⁻¹ and the kon turned out to be 936000 M⁻¹ s⁻¹.
